# In the DeepSol protein solubility set:
# Assay: soluble on expression in E. coli; label from the status in PepcDB or PDB records
row,Sequence,soluble on expression in E. coli
1,MSLSRPTKFRKVDFFPKSTCFIPLGKPKCEVEEIALKIEELEAIRLKDIKELNQEECAAKMEVSRQTFQNIIDSARKKIAIALTEGNAIAIGGGNFKSKFCKFKCLDCRNTYEINCENDKHMCPSCGSNNIVCNKKTGSCENLCKEGHHHHHH,soluble
2,MEQQLKDIISACDLAIQNEDFDTLMNYYSEDAVLVVKPGMIARGKEEIKKAFITIANYFNHHIVPTQGKMILLEAGDTVLVLSQTLLDSDKKDSEYAMERRATYVFKKNAQGEWLCVIDNSYGTDLIGVMAGDPLEHHHHHH,soluble
3,SDPEISEQDEEKKKYTSVCVGREEDIRKSERMTAVVHDREVVIFYHKGEYHAMDIRCYHSGGPLHLGEIEDFNGQSCIVCPWHKYKITLATGEGLYQSINPKDPSAKPKWCSKGVKQRIHTVKVDNGNIYVTLSKEPFKCDSDYYATGEFKVIQSSS,soluble
4,MKYLAGIVTFNPNIERLDQNIRAIYPQVSHIYIVDNGSKNKEEISQLVADYNEEGHLTVDYLTENKGIAYALNCIGQFAVAQEFDWFLTLDQDSVVLGDLIDNYENYLHLPKVGMLSCLYQDMNRENLVMQEFDYKEIEECITSAALMKTSVFEETSGFAEEMFIDFVDSEMNYRLSEMGYKTYQVNFIGLLHEIGHSSRVKKFGHVFHVLNHSPFRKYYMIRNAIYIIKKYGKKKRYKYLVFMRNEFVRVLVAEEQKSKKIVAMIKGLKDGLLMKVDKYGKLEHHHHHH,soluble
5,MLRKADIKDLNACLSLFEQSVKTLCAKDYTKDQICAWIKIDRQQWEEKFKYDEIFVYEKRGKIASFISVKQEQKLLDLLFTHPDFVRQGLAQNLLDFILKTYLHNEIYTFASLSAKDFFLKNGFELIRENKVIKEGQNLKKILMKKDVIYKN,not soluble
6,STSTFQTRRRRLKKVEEEENAATLQLGQEFQLKQINHQGEEEELIALNLSEARLVIKEALVERRRAFKRSQKKTREKELESIDVLLEQTTGGNNKDLKNTMQYLTNFSRFRDQETVGAVIQLLKSTGLHPFEVAQLGSLACDTADEAKTLIPSLNNKISDDELERILKELSNLETLY,soluble
7,GPGSMVRSSSSSSAPLWKNQGGGSATAGAVASTTSPWLLRQLALAHFHNGDIQESADAFEQLLRTAPWELTNPALIFYSTALWHLKSESALGSLAQRLTDAEPLSATTLCVVANAYSLIKDPRDALVMLKRAVQVAPTLAYAHALHGYELLGQDSKAEAEAEFKAALAVDASLYIAYAGLGERFMREEQIDKARGYYKEAVKLNPTPAIVNRFALTYHRQGKSLADLKTALRLYTESLERHPNNVTARRQRADVLLRLDQPMQALEELKALLVQCPGEAVVYVTLAECMVCLRRPHEALQHYQTAMHLDPRRESYVQGCIDQLVAANML,soluble
8,HNPIDLMREIGALRQRGYNDRQIGEKIGVSTEYVNMIAGLLEKGEERLVSAVETGVLPLNLAIEISKTDAKGAQKALMDAYTQNKLRGRKLALVRRLIQQRELRGPQLHSNPLGRKPPKRALTSEGLVRAYQQEATRQKLLIKKAELTQSRLMFVREAFRKLRAD,not soluble
9,AKNECHPERTDGCQHFCLPGQESYTCSCAQGYRLGEDHKQCVPHDQCACGVLTSEKRAPDLQDLPWQVKLTNSEGKDFCGGVIIRENFVLTTAKCSLLHRNITVKTYFNRTSQDPLMIKITHVHVHMRYDADAGENDLSLLELEWPIQCPGAGLPVCTPEKDFAEHLLIPRTRGLLSGWARNGTDLGNSLTTRPVTLVEGEECGQVLNVTVTTRTYCERSSVAAMHWMDGSVVTREHRGSWFLTGVLGSQPVGGQAHMVLVTKVSRYSLWFKQIMNAHHHHHH,soluble
10,GPGSMLRRQCVPLRVVAAGLRLNSSSSGPSKTNDGGIPNATGMDNAPGLYAEKPSSTYCEEKYPNKVEEVGSLKPPTYDVPHGRSDNIKTPEFNTSLGKFDQAPYFTGGPPAMRYHGYKRDPAVEGVDYRDVLPKTPIEDHHPHMEFLSVTGRREGSTFLLANAGVNWELKAAAMSLYRTILKSLPMIKHYYWLLVPLPAMKDKIRLRFLQNQHTKDPDAIRHLLHNGWMEFQESIMFRRPR,not soluble
11,MSIVMSAGKGVTQVVERCEAAKESGFLDLSSCQLMYMADAVYMLIKGYEITKVSIQDNGFKKFPKKFVIKFPTATILNMANNEISEIPEEVATWTSLKGLNAAKNKISKFPEPFLQLKNLIYLDLNGNQLEEIDVDLFYSSLPALIKLNLSGNEGLGDETKKKLKALKPEKLDLIL,not soluble
12,MSRRKAGSAPRRVEPAPAANPDDEMEMQDLVIELKPEPDAQPQQAPRLGPFSPKEVSSAGRFGGEPHHSPGPMPAGAALLALGPRNPWTLWTPLTPNYPDRQPWTDKHPDLLTCGRCLQTFPLEAITAFMDHKKLGCQLFRGPSRGQGSEREELKALSCLRCGKQFTVAWKLLRHAQWDHGLSIYQTESEAPEAPLLGLAEVAAAVSAVVGPAAEAKSPRASGSGLTRRSPTCPVCKKTLSSFSNLKVHMRSHTGERPYACDQCPYACAQSSKLNRHKKTHRQVPPQSPLMADTSQEQASAAPPEPAVHAAAPTSTLPCSGGEGAGAAATAGVQEPGAPGSGAQAGPGGDTWGAITTEQRTDPANSQKASPKKMPKSGGKSRGPGGSCEFCGKHFTNSSNLTVHRRSHTGERPYTCEFCNYACAQSSKLNRHRRMHGMTPGSTRFECPHCHVPFGLRATLDKHLRQKHPEAAGEA,not soluble
13,NTIQQLMMILNSASDQPSENLISYFNNCTVNPKESILKRVKDIGYIFKEKFAKAVGAGCVAIGSQRYKLGVRLYYRVMESMLKSEEERLSIQNFSKLLNDNIFHMSLLACALEVVMATYSRSTSQNLDSGTDLSFPWILNVLNLKAFDFYKVIESFIKAEGNLTREMIKHLERCEHRIMESLAWLSDSPLFDLIKQSKTREGKSTSLSLFYKKVYRLAYLRLNTLCERLLSEHPELEHIIWTLFQHTLQNEYELMRDRHLDQIMMCSMYGICKVKNIDLKFKIIVTAYKDLPHAVQETFKRVLIKEEEYDSIIVFYNSVFMQRLKTNILQYASTRPPTLSPIPHI,soluble
14,MGSGEPNPAGKKKKYLKAALYVGDLDPDVTEDMLYKKFRPAGPLRFTRICRDPVTRSPLGYGYVNFRFPADAEWALNTMNFDLINGKPFRLMWSQPDDRLRKSGVGNIFIKNLDKSIDNRALFYLFSAFGNILSCKVVCDDNGSKGYAYVHFDSLAAANRAIWHMNGVRLNNRQVYVGRFKFPEERAAEVRTRDRATFTNVFVKNIGDDIDDEKLKELFCEYGPTESVKVIRDASGKSKGFGFVRYETHEAAQKAVLDLHGKSIDGKVLYVGRAQKKIERLAELRRRFERLRLKEKSRPPGVPIYIKNLDETINDEKLKEEFSSFGSISRAKVMMEVGQGKGFGVVCFSSFEEATKAVDEMNGRIVGSKPLHVTLGQARRRC,soluble
15,MQIKDEILSLLKRGKNLLAFSYGSDSSVLFYLLMQEKIDFDLVMINYKTRKNSDLEELKAKELALKFHKKIFIKHAPKFQSNFEKKARDFRYDFFEKICLEQGYDHLILAHHLNDQFEWFLMQLSRGAGLAEILGMQECEKRSNYTLLRPLLFISKDEISSFLKEKDIFYFHDES,not soluble
16,MGSDKIHHHHHHMSSLTKMLLILDLFSVDKPIWSADEIIQYCGHSRPTGYRYVKELCDAGLLRRAEGGYSLGPRVIELDYYIRQCDPLLIACRPVMVRVAQESGCDVLLASMYGTKIMAVHQELAHETGQIAFGRGRPMPLFRGGGSKVLLASMTASQLKKLYDRYGAEIAEAGLGATWADFRKQMLKYRNDGHVVSIGELDPNAAGVAIPIPVGDALDPAALVILTTRSRFDLMEKALLVDMAMNAARQIETSMRGNREVQAKALLLS,not soluble
17,MSLNVRIYCRASTEGQHADRALTSLREFSKSKGWQIAGEYIENASGAKLERVELMRLLSEAQSGDLLLVEAIDRLSRLEHSAWVELKDTLNRKGLIIVSMDLPTSWQMVEMAGNDLTSGILRAVNAMLIDILATMARQDYETRRKRQQQGIERAKSEGIYIGRAKNQEAREIVREMLEQGVKPELIMKAAGISRATYYRIKNELLIVKSEGHHHHHH,soluble
18,MTEKKFIQDPWAKMTTRNGLAGDEVISALQKSIRRGKEKDACEFAYEMYITSPQFEEKLWRRLLAISVEDIGMGNPIAALMINNLNMMRKEFQYNESDRAMFFFHAIRYLCGSEKDRSSDLLKNIVIKSFAMGYVPEIPDIALDKHTTRGQEMGRGSEHFLHEASKVIPQAKVENDYKEQYEEIIKKYDPNHVVPSTFVFNPWQVLEHHHHHH,not soluble
19,MPRPSQRLLSPEIITEAAMRMVDLTGDFTMPGLAERLKVRPSSLYNHVSGRAEIIELMRARMMAGIVVADPDGKWSETVAGLAREYRRNYAEHPRLIPLFTAHTVQSGVAFGLYNALAQAFSDGGFTPEEILHAITTVDSFVLGSALDLAAPEVVWATAPEANEAMLAALATSGPNPGRADAAFEFGLRTLIAGLVAQAPIEP,not soluble
20,MSLWQPLVLVLLVLGCCFAAPRQRQSTLVLFPGDLRTNLTDRQLAEEYLYRYGYTRVAEMRGESKSLGPALLLLQKQLSLPETGELDSATLKAMRTPRCGVPDLGRFQTFEGDLKWHHHNITYWIQNYSEDLPRAVIDDAFARAFALWSAVTPLTFTRVYSRDADIVIQFGVAEHGDGYPFDGKDGLLAHAFPPGPGIQGDAHFDDDELWSLGKGVVVPTRFGNADGAACHFPFIFEGRSYSACTTDGRSDGLPWCSTTANYDTDDRFGFCPSERLYTRDGNADGKPCQFPFIFQGQSYSACTTDGRSDGYRWCATTANYDRDKLFGFCPTRADSTVMGGNSAGELCVFPFTFLGKEYSTCTSEGRGDGRLWCATTSNFDSDKKWGFCPDQGYSLFLVAAHEFGHALGLDHSSVPEALMYPMYRFTEGPPLHKDDVNGIRHLYGPRPEPEPRPPTTTTPQPTAPPTVCPTGPPTVHPSERPTAGPTGPPSAGPTGPPTAGPSTATTVPLSPVDDACNVNIFDAIAEIGNQLYLFKDGKYWRFSEGRGSRPQGPFLIADKWPALPRKLDSVFEEPLSKKLFFFSGRQVWVYTGASVLGPRRLDKLGLGADVAQVTGALRSGRGKMLLFSGRRLWRFDVKAQMVDPRSASEVDRMFPGVPLDTHDVFQYREKAYFCQDRFYWRVSSRSELNQVDQVGYVTYDILQCPED,soluble
21,MADKSTEVEKAIDPIIDLGNLLFIDREPIQGDASEGLEERARKNTQLLFNNIWQLEQKRVEEAIIVTLPPATYRLPREKRLPEKKEPTKWEKYAAEKGIEKRKKDKKVFDEATKEWKPTYGYRRGNDDTKDWLIEIPDNAEDPNKDFFAERREKKKERVAKNDMQRMKNLARQMKTTVKSGPSTEKMIGVGVDAKEKSKQQVRFAVDRAKLATASAGKFQEGLKGEKANVKTGKKRKFEANEAPVSGEKERALQILQRMKSKKAKIVEEKAAAVAGPLREKKEKSERKGAKDQTRQKSQIHRQQWFKNKVDGKKKGTGGAGKKGANKAKARKG,not soluble
